The text below walks through data of publication PMC3348108 (The Journal of Experimental Medicine, 2012).

Where no end group is shown, it is not given here.

B1: Ligase IV–interacting human Artemis peptide, WT (peptide)
peptide: {FAM}-DVPQWEVFFKR
B2: DBD–Ligase IV (amino acids 1–240) (domain or fragment)
chain: MAASQTSQTVASHVPFADLCSTLERIQKSKGRAEKIRHFREFLDSWRKFHDALHKNHKDVTDSFYPAMRLILPQLERERMAYGIKETMLAKLYIELLNLPRDGKDALKLLNYRTPTGTHGDAGDFAMIAYFVLKPRCLQKGSLTIQQVNDLLDSIASNNSAKRKDLIKKSLLQLITQSSALEQKWLIRMIIKDLKLGVSQQTIFSVFHNDAAELHNVTTDLEKVCRQLHDPSVGLSDISI

Experiment [1] has as its target B2. Briefly: fluorescence polarisation. Background: Polarisation of emitted light reports the rotation of a fluorescent probe.
The target of experiment [2] is GST–Artemis C terminus (human, UniProt Q96SD1 386-692). Briefly: pull-down.

A word on the Kd: it is a measure of binding affinity in units of concentration.

Sequence of GST–Artemis C terminus (Q96SD1 386-692): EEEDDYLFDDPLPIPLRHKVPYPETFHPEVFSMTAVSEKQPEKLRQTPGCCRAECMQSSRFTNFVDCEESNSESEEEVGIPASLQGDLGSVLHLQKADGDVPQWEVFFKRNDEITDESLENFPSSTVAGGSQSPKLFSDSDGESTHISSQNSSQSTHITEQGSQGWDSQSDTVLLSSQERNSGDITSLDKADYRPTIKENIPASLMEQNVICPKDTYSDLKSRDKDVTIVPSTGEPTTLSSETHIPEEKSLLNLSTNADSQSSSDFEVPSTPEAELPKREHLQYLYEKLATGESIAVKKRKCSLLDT

In experiment [1], B1 yielded an equilibrium dissociation constant (Kd) of about 2600 nM. B2: in experiment [2], the binding result is reported as “binds”.
